# B1: GmGH3-21: GH3 protein, accession CAA42636 (protein)
# chain: MAIATCDHDKNAKALQFIEDMTQNTESVQERVLAEILSQNSQTEYLKRFELNGATDRDTFKSKVPVVSYDDLKHDIHRIANGDRSPILCAHPISEFLTSSGTSAGERKLMPTIRQEMDRRQLIFSLPMPVMNQYVTDMDKGKALIFLFTKAEQKTPSGLVARPVSASMYKSDQFKNRPYDPYNVYTSPDEAILCPDSFQSMYTQMLCGLIMRHQVLRVGANFASGLLRSIHLLQLNWAQLSHDISTGTLNPKITDPAIKQRMTQILKPDPELAEFIVKECSGENWERIIPRIWPNTKYVEVVVTGAMAQYVPTLDYYSGGLPLASNIYGSSECFFGINLNPFCNPSDVSYTIMPNMGYFEFLPQDHDDASSSSGSSFTLSRLIDLDDVELGKSYEIVVTTYSGLCRYRVGDILRVTGFHNTAPQFSFVRRKNVLLSIDSDKTDEAELQNAVEKASVLLKEFKTSVVEYTSFADTKSIPGHYVIYWELLMKDSSNAPTTEALEQCCLTMEESLNAVYRQGRVADHSIGPLEIRVVKNGTFEELMDYAISRGASISQYKVPRCVTFTPITELLDSRVESVHFSPSEPHWTPERRR
# modifications: Glycine max
# B2: MtGH3: GH3 protein, accession ABN09059 (protein, listed as Medicago truncatula)
# chain: MPTSLDYDLSQKNKKTLDFIEDITTHADEIQKKVLAEILNRNANVEYLQRHGLNGHTDSETFKKLLPIITYEDIQNDINLIANGDTSPILTSNPISNFLTSSGTSGGERKLMPATEEEFGRRYLLYSYLMPIMSQFIPDLEKGKGMYLMFIKNESKTPGGIKASPVLTNYYKSSHFLNRPYDPYTNFTSPNETVLCLDSYQSMYSQLLCGLIQNNEVLRVGAVFASGLIRAIRFLEKNWRLLCNDIRTGTLDLLITDDSVREAVMKILKPNKNLADFVEGECNKGSWQGIITRLWPNTKYVDVIVTGTMSQYIPTLDYYSNGLPLVCTMYASSECYFGVNLNPLSKPCHVSYTLIPTMCYYEFLPVNRSNCEVNGSIPPSTTKSLGEKKYQEVVDLVDVKLGQEYELVVTTYAGLYRYKVGDVLKVTGFKNKAPQFSFVCRKNVVLSIESDKTDEVELQNAMKNAVTHLAPFEADVAEYTSYADTTTIPGHYVLYWELNLKGSTKIPHSVYEDCCLTIEESLNSVYRQGRVSDKSIGPLEIKIVEQGTFDKLMDYAINLGASINQYKTPRCVKFAPMVELLESRVMAKYFSPKCPKWVPGHKKWNNE
# B3: PtGH3-7: GH3 protein, accession EEE84166 (protein, listed as Populus trichocarpa)
# chain: MLPVFDPNDNEAGLKLLEDLTNNACQIQQQVLEEILATNLHTEYLKSFLNGDSGKENFKNKVPIVNYEDIKPCIERIANGEPSSIISTQPITELLTSSGTSGGQPKIMPSTAEELERKTFFYNLLVPVMNKYVDGLDQGKAMYLLFIKPEISTPSGLMARPVLTSYYKSNNFRNRAFNRYNVYTSPDETILCSDSKQSMYCQLLCGLVQRDEVLRVGAIFASAFLRAIKFLEEYLKELCSNIRTGSVSDWITDPNCRNAVLSILSKPNSELADLIEDECSGKSWEGIIKKLWPRTKYIEVIVTGSMAQYIPTLEFYSGGLPLVSTMYGSSECYLGINFKPLSNPYDVSYTLLPNMAYFEFLPVDNNHKEVVPDVQCNGVSVTDRNGKEKVEAVDLVDVKLGHYYELIVTTFTGLYRYRVGDILMVTGFYNNAPQFRFVHRRNVVLSIDTDKTNEEDLLKAVTQAKVLLEPLGFLLTEYTSFADTASIPGHYVLFWELKMRGTNDLPELDPVIMEQCCSIVEESLDSVYRRCRKKDKSIGPLEVRVVTHGTFDALMDFCVSQGSSVNQYKTPRCIKSEEALKILDSRVVGRFSSNKTPFWEPFRIET
# B4: NtGH3: GH3 protein, accession AAD32141 (protein, listed as Nicotiana tabacum)
# chain: MAVDSVLSSPLGPPACEKDAKALQFIEEMTRNADAVQERVLNEILTRNSQTEYLKRFKLDGVSDRETFKNKIPVVTYEDLQPEIQRIANGDRSPILSAHPISEFLTSSGTSAGERKLMPTIKEELDRRQLLYSLLMPVMNLYVPGLDKGKGLYFLFIKSETKTPGGLLARPVLTSYYKSEHFKRRPHDPYNVYTSPNEAILCADSFQSMYTQMLCGLYEREQVLRLGAVFASGLVRAIRFLQLHWPQLAHDIRTGTLNPEITDPSICERMGLVMRPNPKLADFVTDECSKENWEGIITRIWPKTKYLDVIVTGAMAQYIPTLDYYSGGLPKACTMYAASECYFGLNLNPMCKPSEVSYTIMPNMGYFEFLPHDPNSSRDSTRNLVDLVDVEVGKEYELVITTYAGLYRYRVGDILRVTGFHNSAPQFHFVRRKNVLLSIDSDKTDEAELQRAVENASKLLKEFNTSVVEYTSYADTKTIPGHYVIYWELLMKDLNNSPSDEVLNKCCLAMEESLNTVYRQGRVACNSIGPLEIRVVKNGTFEELMDYAISRGASINQYKVPRCVSFAPILELLDSRVMSRHFSPSLPQWTPERRH
# B5: AtGH3-6: GH3 protein, accession Q9LSQ4 (protein, listed as Arabidopsis thaliana)
# chain: MPEAPKIAALEVSDESLAEKNKNKLQFIEDVTTNADDVQRRVLEEILSRNADVEYLKRHGLEGRTDRETFKHIMPVVTYEDIQPEINRIANGDKSQVLCSNPISEFLTSSGTSGGERKLMPTIEEELDRRSLLYSLLMPVMDQFVPGLDKGKGMYFLFIKSESKTPGGLPARPVLTSYYKSSHFKNRPYDPYTNYTSPNQTILCSDSYQSMYSQMLCGLCQHKEVLRVGAVFASGFIRAIKFLEKHWPELARDIRTGTLSSEITDSSVREAVGEILKPDPKLADFVESECRKTSWQGIITRLWPNTKYVDVIVTGTMSQYIPTLDYYSNGLPLVCTMYASSECYFGVNLRPLCKPSEVSYTLIPNMAYFEFLPVHRNSGVTSSISLPKALTEKEQQELVDLVDVKLGQEYELVVTTYAGLYRYRVGDVLSVAGFKNNAPQFSFICRKNVVLSIDSDKTDEVELQNAVKNAVTHLVPFDASLSEYTSYADTSSIPGHYVLFWELCLNGNTPIPPSVFEDCCLTIEESLNSVYRQGRVSDKSIGPLEIKMVESGTFDKLMDYAISLGASINQYKTPRCVKFAPIIELLNSRVVDSYFSPKCPKWSPGHKQWGSN
# B6: AtGH3-5: GH3 protein, accession O81829 (protein, listed as Arabidopsis thaliana)
# chain: MPEAPKKESLEVFDLTLDQKNKQKLQLIEELTSNADQVQRQVLEEILTRNADVEYLRRHDLNGRTDRETFKNIMPVITYEDIEPEINRIANGDKSPILSSKPISEFLTSSGTSGGERKLMPTIEEELDRRSLLYSLLMPVMSQFVPGLENGKGMYFLFIKSESKTPGGLPARPVLTSYYKSSHFKERPYDPYTNYTSPNETILCSDSYQSMYSQMLCGLCQHQEVLRVGAVFASGFIRAIKFLEKHWIELVRDIRTGTLSSLITDPSVREAVAKILKPSPKLADFVEFECKKSSWQGIITRLWPNTKYVDVIVTGTMSQYIPTLDYYSNGLPLVCTMYASSECYFGVNLRPLCKPSEVSYTLIPSMAYFEFLPVHRNNGVTNSINLPKALTEKEQQELVDLVDVKLGQEYELVVTTYAGLCRYRVGDLLRVTGFKNKAPQFSFICRKNVVLSIDSDKTDEVELQNAVKNAVTHLVPFDASLSEYTSYADTSSIPGHYVLFWELCLDGNTPIPPSVFEDCCLAVEESFNTVYRQGRVSDKSIGPLEIKIVEPGTFDKLMDYAISLGASINQYKTPRCVKFAPIIELLNSRVVDSYFSPKCPKWVPGHKQWGSN
# B7: CcGH3: GH3 protein, accession AAS02074 (protein)
# chain: MAVDSVLSSPLGPPACEKDAKALQFIEEMTRNADAVQQRVLDEILTRNSQTEYLKRFKLDGVSDRETFKSRIPVVTYEDLQPEIQRIANGDRSPILSAHPISEFLTSSGTSAGERKLMPTIKEELDRRQLLYSLLMPVMNLYVPGLDKGKGLYFLFIKSETKTPGGLLARPVLTSYYKSEHFKSRPHDPYNVYTSPNEAILCADSFQSMYTQMLCGLYEREQVLRLGAVFASGLVRAIRFLQLHWPQLAHDIRTGNLNPQITNLSLCERMGKIMRPNPELADFVAGECCKENWEGIITRIWPKTKYLDVIVTGAMAQYIPTLDYYSGGLPKACTMYAASECYFGLNLNPMCKPSEVSYTIMPNMGYFEFLPHDSTTTNSSPTNLVDLVDVEVGKEYELVITTYAGLYRYRVGDILRVTGFHNSAPQFHFVRRKNVLLSIDADKTDEAELQKAVENASKLLREFNTSVVEYTSYADTKTIPGHYVIYWELLMKDLKNSPSDEVLNKCCLAMEESLNTVYRQGRVACNSIGPLEIRVVKNGTFEELMDYAISRGASINQYKVPRCVNFAPILELLDSRVMSSHFSPSLPQWTPERRR
# modifications: Capsicum chinense
# What was measured:
# [1] = LC-MS assay of GH3 conjugation of 2,4-D with Asp or Glu; type: biochemical; details: 5 mM 2,4-D substrate; for kcat (hrs−1) 2,4-D-Asp: conjugation of 2,4-D with Asp by recombinant GH3 protein, 2,4-D-Asp product by LC-MS; for kcat (hrs−1) 2,4-D-Glu: conjugation of 2,4-D with Glu by recombinant GH3 protein, 2,4-D-Glu product by LC-MS
# How it was run: (§1)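 N-His-tagged GH3 homologs expressed in E. coli C41(DE3) and Ni-NTA purified (44 to 164 μg/mL) were incubated 3 hours at 30° C. in 20 mM Tris-HCl pH 8.0, 5 mM MgCl2, 1 mM DTT with 5 mM each of auxin, ATP and Asp or Glu. Conjugates were quantified by LC-MS against standards.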
# [2] = LC-MS assay of GH3 conjugation of IAA with Asp or Glu; type: biochemical; details: for kcat (hrs−1) IAA-Asp: conjugation of IAA with Asp by recombinant GH3 protein, IAA-Asp product by LC-MS; for kcat (hrs−1) IAA-Glu: conjugation of IAA with Glu by recombinant GH3 protein, IAA-Glu product by LC-MS
# How it was run: as §1
Molecule,"kcat (hrs−1) 2,4-D-Asp [1] [h⁻¹]","kcat (hrs−1) 2,4-D-Glu [1] [h⁻¹]",kcat (hrs−1) IAA-Asp [2] [h⁻¹],kcat (hrs−1) IAA-Glu [2] [h⁻¹]
B1,27.468,22.910,1087.519,1075.524
B2,1.494,0.122,337.033,11.549
B3,0.547,3.487,38.668,450.548
B4,1.990,0.804,716.658,34.341
B5,2.136,0.598,447.107,14.154
B6,2.309,0.795,578.727,68.086
B7,2.517,0.577,414.234,15.608

# From patent US20150351390A1, “COMPOSITIONS AND METHODS FOR AUXIN-ANALOG CONJUGATION” (PIONEER HI-BRED INTERNATIONAL, INC., priority 2012, published 2015)
